Values quoted from earlier work, collected in publication PMC9213791.

Molecular target: cardiac troponin C N-terminal domain (cNTnC) N-terminal domain (Homo sapiens) (UniProt P63316)
Sequence (P63316 1-89): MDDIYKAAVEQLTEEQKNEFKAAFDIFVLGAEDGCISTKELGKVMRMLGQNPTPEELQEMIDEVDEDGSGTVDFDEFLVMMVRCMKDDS

**Q.** For “cardiac troponin I switch peptide switch peptide (from UniProt P19429)”, which Kd is on record?
**A.** 154 µM
